Assay results: publication PMC10609481, “Substrate DNA Promoting Binding of Mycobacterium tuberculosis MtrA by Facilitating Dimerization and Interpretation of Affinity by Minor Groove Width”
Where “and” joins values, the source holds several entries; their conditions need not be identical. Identical values can stand only once.

T1: MtrA (Mycobacterium tuberculosis H37Rv) (UniProt P9WGM7)
T1 sequence: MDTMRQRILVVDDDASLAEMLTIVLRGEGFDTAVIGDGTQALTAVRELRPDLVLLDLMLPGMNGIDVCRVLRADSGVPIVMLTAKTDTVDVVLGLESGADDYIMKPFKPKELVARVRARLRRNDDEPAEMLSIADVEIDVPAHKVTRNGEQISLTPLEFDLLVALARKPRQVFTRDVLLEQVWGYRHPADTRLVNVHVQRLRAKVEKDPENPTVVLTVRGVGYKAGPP

T2: MtrA (Mycobacterium tuberculosis H37Rv, UniProt P9WGM7 1-228)
T2 sequence: T1 sequence

B1: No-Binding fragment (dsDNA)
DNA 1: ACAGCGGGACGTTTTCGCGCTGCATC
DNA 2: GATGCAGCGCGAAAACGTCCCGCTGT
B2: artificial highest-contribution sequence (dsDNA)
DNA 1: GTTTTGTTATCGTTTTGTGATATGGA
DNA 2: TCCATATCACAAAACGATAACAAAAC
B3: Rv3859c fragment (dsDNA)
DNA 1: GTTACGTGATCGAATTGTGGTCCAGG
DNA 2: CCTGGACCACAATTCGATCACGTAAC
B4: Rv0309 fragment (dsDNA)
DNA 1: GCTTTGTCACCGCACAGTGACCCAGC
DNA 2: GCTGGGTCACTGTGCGGTGACAAAGC
B5: Rv2524c fragment (dsDNA)
DNA 1: GTTTTGTTATCAAATCGTTATGCTGG
DNA 2: CCAGCATAACGATTTGATAACAAAAC

Legend:
[1] = target: T1, MtrA (Mycobacterium tuberculosis H37Rv); test: BLI
MtrA = target: T2, MtrA; test: BLI; conditions: protein: recombinant; tags: His6 (pET28a, BamHI/XhoI; N-terminal, inferred from stop codon in reverse primer); chain copies: 2; blunt

Molecule	Kd [1]	Kd (MtrA)	further results
Rv0320 fragment	0.142 µM	–	–
Rv0469 fragment	119 µM	–	–
Rv1918c fragment	0.079 µM	–	–
Rv3246c fragment	9880 µM	–	–
Rv3849 fragment	9650 µM	–	–
B1	–	–	binding result (MtrA): no binding
B2	–	0.248 µM	–
B3	–	13.3 µM and 11.1 µM	–
B4	–	178 µM	–
B5	–	0.0462 µM and 0.0625 µM	–
